Laboratory results taken from PMC7263513 (bioRxiv, 2020).
Numbering of substitutions follows the chain as printed.

B1: C155 (antibody, V domains shown)
VH: EVQLVESGGGLIQPGGSLRLSCAASGFIVSSNYMSWVRQAPGKGLEWVSVIYSGGSTFYADSVKGRFTISRDNSKNTLYLQMNSLRAEDTAVYYCARDFGEFYFDYWGQGTLVTVSS
VL: EIVMTQSPATLSVSPGERATLSCRASQSVSSNLAWYQQKPGQAPRLLIYGASTRATAIPARFSGSGSGTEFTLTISSLQSEDFAVYYCQQYNNWPRTFGQGTKVEIK
B2: C148 (antibody, V domains shown)
VH: EVQLVESGGGLVQPGGSQRLSCAASGFTVSSNYMSWIRQAPGKGLEWVSVIYSGGSAYYVDSVKGRFTISRDNSKNTLYLQMNSLRPEDTAVYYCARIANYMDVWGKGTTVTVSS
VL: EIVMTQSPATLSVSPGERATLSCRASQSVSSHLAWYQQKPGQAPRLLIYGASTRATGIPTRFSGSGSGTEFTLTISSLQSEDFAVYYCQQYNNWPPLTFGGGTKVEIK
B3: C145 (antibody, V domains shown)
VH: EVQLVESGGGLIQPGGSLRLSCAASGFSVSSNYMSWVRQAPGKGLEWVSVIYSGGSTYYADSVKGRFTISRDNSKNTLYLQMNSLRAEDTAVYYCAREGEVEGYYDFWSGYSRDRYYFDYWGQGTLVTVSS
VL: QSALTQPASVSGSPGQSITISCTGTSSDVGGYNYVSWYQQHPGKAPKLMIYDVSNRPSGVSNRFSGSKSGNTASLTISGLQAEDEADYYCSSYTSSTTRVFGTGTRVTVL
B4: C150 (antibody, V domains shown)
VH: EVQLVESGGGLVQPGGSLRLSCVASGFTFSSYWMHWVRQVPGKGPVWVSHINSEGSSTNYADSVRGRFTISRDNAKDTLYLQMNNLRAEDTAVYYCARPTAVAAAGNYFYYYGMDVWGQGTTVTVSS
VL: B3 VL with G31Y, Y34F, D52E, T76I, T94R, T97S, R99L, T103G, R106K, V107L
B5: C154 (antibody, V domains shown)
VH: QVQLVESGGGVVQPGRSLRLSCAASGFTFSRYGMHWVRQAPGKGLEWVAVMSYDGSSKYYADSVKGRFTISRDNSKNTLCLQMNSLRAEDTAVYYCAKQAGPYCSGGSCYSAPFDYWGQGTLVTVSS
VL: DIQMTQSPSSLSASVGDRVTITCQASQGISNYLNWYQQKPGKAPKLLIYDASNLETGVPSRFSGSGSGTDFTFTISSLQPEDIATYYCQQYDNLPITFGQGTRLEIK
B6: C151 (antibody, V domains shown)
VH: EVQLVESGGGLVKPGGSLRLSCAASGFTFSSYNMNWVRQAPGKGLEWVSCISSSSSYIYYADSVKGRFTISRDNAKNSLYLQMNSLRAEDTAVYYCARERGYDGGKTPPFLGGQGTLVTVSS
VL: NFMLTQPHSVSESPGKTVTISCTGSSGSIASNYVQWYQQRPGSAPTTVIYEDNQRPSGVPDRFSGSIDSSSNSASLTISGLKTEDEADYYCQSYDSSNYWVFGGGTKLTVL
B7: C143 (antibody, V domains shown)
VH: EVQLVESGGGLVQPGGSLRLSCAASGFSVSTKYMTWVRQAPGKGLEWVSVLYSGGSDYYADSVKGRFTISRDNSKNALYLQMNSLRVEDTGVYYCARDSSEVRDHPGHPGRSVGAFDIWGQGTMVTVSS
VL: QSALTQPASVSGSPGQSITISCTGTSNDVGSYTLVSWYQQYPGKAPKLLIFEGTKRSSGISNRFSGSKSGNTASLTISGLQGEDEADYYCCSYAGASTFVFGGGTKLTVL
B8: C153 (antibody, V domains shown)
VH: EVQLVESGGGLIQPGGSLRLSCAASGFTVSSNYMSWVRQAPGKGLEWVSVIYSGYSTYYVDSVKGRFTISRDNSKNTLYLQMNSLRAEDTAVYYCARVGGAHSGYDGSFDYWGQGTLVTVSS
VL: QSALTQPASVSGSPGQSITISCTGTSSDVGSYNLVSWYQQHPGKAPKLMIYEGSKRPSGVSNRFSGSKSGNTASLTISGLQAEDEADYYCCSYAGSSTWVFGGGTKLTVL

Target: SARS-CoV-2 receptor binding domain (RBD) (Severe acute respiratory syndrome …, UniProt P0DTC2)
Test: cell-based or functional assay

| Binder | IC50 of neutralisation of SARS-CoV-2 pseudovirus (293T_(ACE2) cells) |
| --- | --- |
| B1 | 0.011 µg/mL |
| B2 | > 1 µg/mL |
| B3 | 0.00304 µg/mL |
| B4 | > 1 µg/mL |
| B5 | 0.435 µg/mL |
| B6 | 0.0318 µg/mL |
| B7 | > 1 µg/mL |
| B8 | 0.0707 µg/mL |
